# Source: the supplement of paper PMC12042874
# ± gives the uncertainty stated by the source.
# Assay: amyloid nucleation score (Sup35N fusion, yeast selection) (log enrichment); library NNK1; higher = more nucleation; inactive = no reads after selection
# Outline: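 Peptides of 20 random codons fused to Sup35N were expressed in psi-negative yeast, induced 24 hours with 100 μM copper sulfate, then grown 7 days at 30°C on medium lacking adenine and uracil. Input and output plasmid inserts were Illumina-sequenced. Nucleation score is the DiMSum log enrichment of output over input reads, centred on the mode score of non-aggregating sequences, excluding sequences with under 100 input reads. Random libraries had three technical output replicates.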
row,Substance,amyloid nucleation score
1,RFGWISMYSCSRWHCMRNLY,1.13 ± 0.19
2,SGEDVSGCQDLFALVPMGQG,0.495 ± 0.51
3,VITTNLTCFALSYAAVFISK,3.69 ± 0.078
4,LRRLSIANLFIFAFSWRFYW,1.03 ± 0.52
5,QRLLTYPLLYVTSNVLRFYR,-0.001 ± 0.7
6,LDGTGWYCCQYSGGLYSLCG,-0.073 ± 0.31
7,SIYHYCRDIRDCRMSRLELG,0.572 ± 0.33
8,GSLPIRNTFTWGEL,inactive
9,KSQCWRSGLVLFNA,-0.243 ± 0.36
10,NYRFVCEPYFYSNCPPAQWT,0.02 ± 0.59
11,ILTRRSLLRLWIIISDKSFR,-0.695 ± 1.4
12,YKGMSAHFGLILFDCCLNGS,7.516 ± 0.067
13,NGSYCKQILSRYVCRGECLH,-1.85 ± 1.4
14,HILTMDLLPTPLSRQLRNMN,-0.763 ± 0.97
15,RGSWIPVKQRLKVPQRDGLG,0.207 ± 0.28
16,YGVVYNIWHFIEMKGDYTHA,6.869 ± 0.055
17,SSNWFPR,-0.07 ± 0.59
18,TVPLEIIL,0.382 ± 0.52
19,KGYGRFMSFF,-0.697 ± 0.4
20,ILCSLYYICT,2.74 ± 0.071
21,PCWWQFY,0.167 ± 0.64
22,VFVVDIFLFVMNCPYDPLSR,2.6 ± 0.066
23,IDHSTRVNPGEPLQVLRGGL,4.29 ± 0.088
24,AWCSSDGCFCPKRYMLLRSL,0.159 ± 0.84
25,GIHSLFMVAIYFAYWLRKWV,-0.877 ± 1.6

row,Substance,amyloid nucleation score
1,SNMSHLNRG,0.649 ± 0.75
2,STTLQERVYSAPATDLRDWA,0.246 ± 0.37
3,SRMLAVKFKLVVTNCCVKLI,-0.598 ± 1.4
4,DLHRRSVCCFENVFVITAYY,2.06 ± 0.27
5,RPTLDVIRNCRVDFAEKGGN,0.711 ± 0.35
6,YLFSFWFPRYRHVIFIGYTL,0.531 ± 0.53
7,RMWRYASCHYI,1.73 ± 0.76
8,RQVPPISGAISWGDSPSNGG,0.18 ± 1.2
9,TPSTQLALWAIYFHRRLFES,-0.54 ± 1.3
10,RYLYVPALPFNFLCL,1.63 ± 0.1
11,REYETWLQSQRQNLSDLQK,0.173 ± 0.33
12,RAMKWLYVSNNDNMRKHFFS,-0.712 ± 0.42
13,SCILS,inactive
14,TRWIRYTFRFS,1.61 ± 0.13
15,HSAITNCRRVVTALIYRRVM,-0.875 ± 2.4
16,SDLDVRAWQSLVSWIYRFPS,0.18 ± 0.37
17,SIDCLCYYAPRLFRMHVELT,-0.656 ± 0.89
18,QVRCAFVIRRSV,0.143 ± 0.64
19,LSCLYDDCC,1.05 ± 0.61
20,IKLFLRNIV,-0.252 ± 0.59
21,KNDVASLLLGSMLKANSTCC,0.413 ± 1.4
22,IGGRGVLKSVSTLTCVLWTW,0.473 ± 0.92
23,CWGLLSGDCHALEKFNRFYL,-0.086 ± 0.48
24,GQKVMIAHGTQETIHGGCCG,-0.275 ± 0.49
25,NFVGFL,-0.33 ± 0.58

row,Substance,amyloid nucleation score
1,LAILMMCLLWTDLAKVLCPH,-0.015 ± 0.69
2,VFDAKGLNAHFNEVNVVYIR,4.77 ± 0.062
3,YMCTLRGGGSDCTWAYPKWG,0.275 ± 0.48
4,EIRKNTASMIMKLCIYIVGA,-0.007 ± 0.45
5,VVSNVPVWTSGYYHHCCHRC,0.856 ± 0.79
6,FTSRRATCDIGNSMNACFER,1.5 ± 0.73
7,VWRSFSGNITCMLFYNFPVR,-0.621 ± 0.95
8,TVSKLSCYNVVDPTIWNLSD,0.236 ± 0.69
9,INYRLYGVIGVAGTGPG,0.1 ± 0.33
10,ESNMGNGSRGIDV,0.821 ± 1.1
11,QPPKHMTMYVYVDTHEAVLS,-0.133 ± 0.38
12,CRTYYCHTHGPAQKDHYDRG,-0.78 ± 0.89
13,SCTVLWDKFDRLLWCSK,inactive
14,MKVIDFVGFPFMGWRKWKTW,-0.063 ± 0.35
15,LMFGRKCMLSLFPVRFHRCH,0.378 ± 0.9
16,KLVLSYRYNDG,2.17 ± 0.18
17,LISPVQSNTSAMVCELSDPY,0.56 ± 0.76
18,RLPRQYVMG,-0.279 ± 0.66
19,SLWVWRNAWLVHLYRL,-0.206 ± 0.54
20,NFVFGHNGGACSYVGLLM,1 ± 0.7
21,NNCYLDTSLSNLIRDGSSPV,-0.453 ± 0.64
22,YVFSG,-0.202 ± 0.32
23,LGASGLGCIF,4.56 ± 0.055
24,RLTECSYCCNSDYITHMELL,-0.317 ± 0.29
25,TGPKRLTDNREFRKF,-1.01 ± 2.7

row,Substance,amyloid nucleation score
1,NGYEMVQVLTSFMAAMGVFW,0.256 ± 0.84
2,WIFIGTIPILLIGDRRSANV,6.35 ± 0.066
3,AESWHVGKS,-0.593 ± 0.59
4,HRSRLFAISERFEDIFYI,0.611 ± 0.78
5,SSIIILSNMLTYK,3.61 ± 0.1
6,GSRYHEECRWTCREAPTDAR,-1.07 ± 1.6
7,DETLEEPCT,0.017 ± 0.43
8,SEEGMCSSMGVD,inactive
9,IRTVKADNMRIWQAQRSSEI,0.157 ± 0.87
10,INRTTRNLLSRCRWYNCYKR,0.155 ± 1
11,KWTLTRLYVACRYNDHSRLS,1.07 ± 0.39
12,WAIFLVR,-2.31 ± 2.4
13,CLVVPCD,0.151 ± 0.42
14,HHSYKYCKLAFWTRSSKWNR,0.7 ± 0.71
15,VRCLGWVDHERVRDLCIHSG,-0.414 ± 0.31
16,TSSFFTDIDFNG,-0.363 ± 0.7
17,SGPHGRFDARSMLAIL,-0.773 ± 0.64
18,YHVSLLSI,0.169 ± 0.65
19,VCLVVEIG,1.04 ± 0.93
20,NMGNLFNICETGNLL,0.296 ± 0.66
21,IRSVGRSLRFMYS,0.204 ± 0.46
22,SERVMEWGTLKLYDSVHCVL,-1.55 ± 2.7
23,MYCWY,inactive
24,VDISIVWDVPHQVLTGGFY,-0.531 ± 0.29
25,TRGTPFEYLATGG,0.607 ± 0.71

row,Substance,amyloid nucleation score
1,GSKGMGSERQVECFTKI,-0.505 ± 0.37
2,FGHYFDTLKPYSRALWRVVS,-0.641 ± 0.61
3,FSALLIPENISD,-1.25 ± 1.7
4,VKLDIVFLMVFGPLCSESPF,1.83 ± 0.24
5,SRVRHFVSFFTV,-0.333 ± 0.58
6,SGFIGS,-1.33 ± 1.3
7,ASVFLNQLLPCNYSAVRMGS,0.134 ± 0.84
8,SYSYDARNCNNTRDGNYNFL,-1.99 ± 1.1
9,SWSSKRNVWEHIVGESYEYF,inactive
10,QGIEKGFDWKRIFCGELYVQ,-0.065 ± 0.4
11,CLFLIKKHVNNDMGSVRRLS,0.317 ± 0.71
12,YAEVGGLYSTSGVRRKNGGR,0.346 ± 0.32
13,IFVVGAGLHDKTNGYVYRSR,0.164 ± 0.24
14,LFFRIYDHCNEHEKCVV,inactive
15,RGDLTPDARSYGPCSIHRWR,inactive
16,YLERIGATYMGG,0.601 ± 0.4
17,TISSLLFI,-0.252 ± 0.47
18,RHLLSSYRGFLLEQVSASNS,1.51 ± 0.38
19,NVSYRSYRFVHWVNLVGSMA,inactive
20,FNLGTNK,-0.442 ± 0.3
21,TFECIIWFLGATVMSMQLFI,1.93 ± 0.62
22,GGTNFKDDDV,0.683 ± 1
23,IERKLCKIGVMK,0.597 ± 0.65
24,RLMTASTALGPYTRDLGAYY,-0.089 ± 1.2
25,MDARKTGTDNWRTS,-0.202 ± 0.32

row,Substance,amyloid nucleation score
1,ILSLIVFNYDYCSKVWNLLG,-1.53 ± 0.66
2,WNSFTELRAHMLYHLKKIII,1.72 ± 0.22
3,GTSSYMV,-0.01 ± 0.23
4,CLSSALLHLFRRNRIISVVT,0.193 ± 0.39
5,SFALLTQLNEYKTARMKRAG,0.64 ± 0.35
6,SCPKVITNVLSSKTYPRMVG,1.11 ± 0.34
7,VDGLHLNSYYEPVSMMSIVV,-0.336 ± 0.43
8,GGFHYAVDWSCLRNIVWADL,-1.2 ± 2.4
9,SCSWFFTYIVVAVNTLSISY,-0.444 ± 0.75
10,LVVLLIRTNCVKRKEFGERA,-2.04 ± 2.4
11,VYEYFRLAGGAIQIAGIPVA,-0.002 ± 0.72
12,YLCRRT,0.675 ± 0.63
13,EDMTLMLNNFSPILAIGWWT,1.25 ± 0.25
14,PFRMQNDIVRDQYSVKLQWF,3.29 ± 0.17
15,GVWGQFQVSILWRHKCDLSG,inactive
16,CFSQPHGAVANHNAFSDNPW,-0.289 ± 0.39
17,CPLRIIQLMCTNRGLMGRLG,-0.071 ± 0.31
18,YFAVDDNYLHIQTSVRSRCS,0.036 ± 0.41
19,FTMLYSVYPSGRPGSQSGR,1.92 ± 0.21
20,YKSLLGRAVMFKRHQPGPRA,0.248 ± 0.39
21,VINCNWKFSFFFALVNEGGV,6.554 ± 0.048
22,HGYFSNMWSYRRYQLLKLSP,0.664 ± 0.77
23,CRLKLNPSVHGIGRGVCLAE,-0.464 ± 0.48
24,DNLLEAASNNIIEYVCSPLE,0.501 ± 0.44
25,NVFCPVHENVSRLLQRHTRL,1.1 ± 0.53

row,Substance,amyloid nucleation score
1,PYSLQSTLHVRER,0.485 ± 0.35
2,NYEQYLGCSNTEERSSSCTL,-0.286 ± 1.2
3,SKSSRTFLVFSLVWVYNLLM,1.73 ± 0.19
4,FYVLATFSNC,0.618 ± 0.4
5,VRKSVSTFT,0.055 ± 0.37
6,NSVWHGLYCSQQRSLRTTRL,0.116 ± 0.29
7,SSGYYFVQWTCYLRK,-1.27 ± 2.7
8,RRSSSFSGIWYVSVGYNASL,-0.316 ± 0.53
9,CEVAQCHYLVVWFCAWAWRY,0.939 ± 0.68
10,IFTLGVALFSIVM,4.24 ± 0.067
11,LISACDRSPSVIPI,0.252 ± 0.37
12,NAPLEWSSGHASQIVLGHVT,-0.177 ± 0.69
13,FSCYM,0.245 ± 0.9
14,TFMNRLPMNLDLLIGLTCNL,0.492 ± 0.38
15,TYWNVLNAVGQALPSIYGIG,0.955 ± 0.63
16,RIFNKDSLGI,-0.554 ± 0.48
17,SMYFQRP,0.53 ± 0.26
18,ISSECQVICYLLHEFSPASV,1.35 ± 0.25
19,HANLGFS,-0.742 ± 0.78
20,SWCVTCVLA,7.204 ± 0.053
21,LTGSRIMCFSMWR,-1.02 ± 0.43
22,QPLSLCLVFDCTNISFSFQA,8.594 ± 0.045
